Test results from the supplement of paper PMC9112550, “Optimization of the antimicrobial peptide Bac7 by deep mutational scanning” (BMC Biology, 2022).

Tested on: Escherichia coli TOP10
Test: shrunken log2 fold change of peptide-encoding DNA abundance (4.5 h post-induction vs induction); higher = less antimicrobial activity (less host growth inhibition)
Conditions: time post-induction: 4.5 h; library: site-saturation at positions 5, 18, 19, 20
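Further: peptides expressed intracellularly from a pBAD plasmid library in pooled LB shake-flask culture, induced with 0.3% L-arabinose, DNA abundance read by NGS, three biological replicates, DESeq2 with apeglm shrinkage.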

## RRIRVRPPRLPRPRPRPGCRPRP
  shrunken log2 fold change: 0.5

## RRIRQRPPRLPRPRPRPLDFPRP
  shrunken log2 fold change: -0.0491

## RRIRTRPPRLPRPRPRPELHPRP
  shrunken log2 fold change: 0.396

## RRIRPRPPRLPRPRPRPKELPRP
  shrunken log2 fold change: 0.0936

## RRIRCRPPRLPRPRPRPWMYPRP
  shrunken log2 fold change: -0.0169

## RRIRNRPPRLPRPRPRPYFGPRP
  shrunken log2 fold change: -0.284

## RRIRARPPRLPRPRPRPAPMPRP
  shrunken log2 fold change: 0.799

## RRIRVRPPRLPRPRPRPDDVPRP
  shrunken log2 fold change: -0.297

## RRIRLRPPRLPRPRPRPAGFPRP
  shrunken log2 fold change: 0.46

## RRIRYRPPRLPRPRPRPYMPPRP
  shrunken log2 fold change: -0.00804

## RRIRERPPRLPRPRPRPSHNPRP
  shrunken log2 fold change: -0.903

## RRIRPRPPRLPRPRPRPPFLPRP
  shrunken log2 fold change: 0.188

## RRIRERPPRLPRPRPRPLLRPRP
  shrunken log2 fold change: -0.152

## RRIRKRPPRLPRPRPRPEHLPRP
  shrunken log2 fold change: 0.132

## RRIRKRPPRLPRPRPRPPPRPRP
  shrunken log2 fold change: 1.32

## RRIRPRPPRLPRPRPRPVWQPRP
  shrunken log2 fold change: 0.23

## RRIRDRPPRLPRPRPRPHFTPRP
  shrunken log2 fold change: -0.307

## RRIRFRPPRLPRPRPRPEVIPRP
  shrunken log2 fold change: 0.0373

## RRIRLRPPRLPRPRPRPIITPRP
  shrunken log2 fold change: -0.613

## RRIRGRPPRLPRPRPRPGFQPRP
  shrunken log2 fold change: 0.157

## RRIRQRPPRLPRPRPRPYGCPRP
  shrunken log2 fold change: -0.00141

## RRIRDRPPRLPRPRPRPGEQPRP
  shrunken log2 fold change: 0.259

## RRIRTRPPRLPRPRPRPCMSPRP
  shrunken log2 fold change: -0.196

## RRIRHRPPRLPRPRPRPVMIPRP
  shrunken log2 fold change: -0.0805

## RRIRLRPPRLPRPRPRPEMFPRP
  shrunken log2 fold change: -0.00904

## RRIRWRPPRLPRPRPRPRHQPRP
  shrunken log2 fold change: -0.0137

## RRIRERPPRLPRPRPRPIPNPRP
  shrunken log2 fold change: -0.135

## RRIRSRPPRLPRPRPRPVHMPRP
  shrunken log2 fold change: -0.322

## RRIRQRPPRLPRPRPRPTNPPRP
  shrunken log2 fold change: -0.175

## RRIRSRPPRLPRPRPRPKQRPRP
  shrunken log2 fold change: 0.161

## RRIRYRPPRLPRPRPRPQPNPRP
  shrunken log2 fold change: -0.226

## RRIRWRPPRLPRPRPRPGCDPRP
  shrunken log2 fold change: 0.818

## RRIRKRPPRLPRPRPRPKDVPRP
  shrunken log2 fold change: -0.018

## RRIRRRPPRLPRPRPRPKFMPRP
  shrunken log2 fold change: 0.122

## RRIRWRPPRLPRPRPRPEELPRP
  shrunken log2 fold change: -0.00088

## RRIRQRPPRLPRPRPRPQKMPRP
  shrunken log2 fold change: -0.00813

## RRIRKRPPRLPRPRPRPMGHPRP
  shrunken log2 fold change: 0.000751

## RRIRSRPPRLPRPRPRPPTKPRP
  shrunken log2 fold change: 0.0856

## RRIRLRPPRLPRPRPRPNNVPRP
  shrunken log2 fold change: -0.395

## RRIRYRPPRLPRPRPRPYRNPRP
  shrunken log2 fold change: -0.0228

## RRIRGRPPRLPRPRPRPYTIPRP
  shrunken log2 fold change: 0.187

## RRIRERPPRLPRPRPRPHVSPRP
  shrunken log2 fold change: -0.0346

## RRIRNRPPRLPRPRPRPRYKPRP
  shrunken log2 fold change: -0.566

## RRIRKRPPRLPRPRPRPKQFPRP
  shrunken log2 fold change: -0.123

## RRIRFRPPRLPRPRPRPYSNPRP
  shrunken log2 fold change: -0.603

## RRIRIRPPRLPRPRPRPTMEPRP
  shrunken log2 fold change: -0.523

## RRIRLRPPRLPRPRPRPYQGPRP
  shrunken log2 fold change: -0.388

## RRIRARPPRLPRPRPRPVYMPRP
  shrunken log2 fold change: -0.436

## RRIRMRPPRLPRPRPRPTMDPRP
  shrunken log2 fold change: 0.306

## RRIRIRPPRLPRPRPRPKPLPRP
  shrunken log2 fold change: -0.191

## RRIRHRPPRLPRPRPRPYDPPRP
  shrunken log2 fold change: -0.00884

## RRIRNRPPRLPRPRPRPDNWPRP
  shrunken log2 fold change: -0.532

## RRIRIRPPRLPRPRPRPGTFPRP
  shrunken log2 fold change: -0.0863

## RRIRFRPPRLPRPRPRPCIIPRP
  shrunken log2 fold change: -0.568

## RRIRVRPPRLPRPRPRPMKVPRP
  shrunken log2 fold change: -0.194

## RRIRGRPPRLPRPRPRPFCLPRP
  shrunken log2 fold change: 0.229

## RRIRNRPPRLPRPRPRPSITPRP
  shrunken log2 fold change: -0.656

## RRIRDRPPRLPRPRPRPCNFPRP
  shrunken log2 fold change: -0.0419

## RRIRYRPPRLPRPRPRPMPQPRP
  shrunken log2 fold change: -0.318

## RRIRSRPPRLPRPRPRPWIKPRP
  shrunken log2 fold change: -0.34

## RRIRERPPRLPRPRPRPLTYPRP
  shrunken log2 fold change: -0.188

## RRIRNRPPRLPRPRPRPSIMPRP
  shrunken log2 fold change: -0.611

## RRIRSRPPRLPRPRPRPNGMPRP
  shrunken log2 fold change: -0.0245

## RRIRSRPPRLPRPRPRPFMNPRP
  shrunken log2 fold change: -0.147

## RRIRNRPPRLPRPRPRPICIPRP
  shrunken log2 fold change: -0.531

## RRIRVRPPRLPRPRPRPEYYPRP
  shrunken log2 fold change: 0.0358

## RRIRKRPPRLPRPRPRPWSAPRP
  shrunken log2 fold change: 0.0935

## RRIRPRPPRLPRPRPRPQYPPRP
  shrunken log2 fold change: -0.133

## RRIRSRPPRLPRPRPRPGCIPRP
  shrunken log2 fold change: 0.0242

## RRIRRRPPRLPRPRPRPRTQPRP
  shrunken log2 fold change: 0.19

## RRIRCRPPRLPRPRPRPKAVPRP
  shrunken log2 fold change: 0.564

## RRIRVRPPRLPRPRPRPSFDPRP
  shrunken log2 fold change: -0.269

## RRIRPRPPRLPRPRPRPPQWPRP
  shrunken log2 fold change: 0.403

## RRIRGRPPRLPRPRPRPPWPPRP
  shrunken log2 fold change: 0.871

## RRIRARPPRLPRPRPRPCQKPRP
  shrunken log2 fold change: 0.431

## RRIRDRPPRLPRPRPRPWRDPRP
  shrunken log2 fold change: -0.0505

## RRIRKRPPRLPRPRPRPYRLPRP
  shrunken log2 fold change: -0.212

## RRIRGRPPRLPRPRPRPGAEPRP
  shrunken log2 fold change: 1.68

## RRIRHRPPRLPRPRPRPWDKPRP
  shrunken log2 fold change: -0.000233

## RRIRMRPPRLPRPRPRPEHVPRP
  shrunken log2 fold change: 0.0396

## RRIRLRPPRLPRPRPRPCICPRP
  shrunken log2 fold change: -0.346

## RRIRQRPPRLPRPRPRPNHSPRP
  shrunken log2 fold change: -0.762

## RRIRLRPPRLPRPRPRPNQDPRP
  shrunken log2 fold change: -0.0883

## RRIRVRPPRLPRPRPRPTECPRP
  shrunken log2 fold change: 0.00778

## RRIRSRPPRLPRPRPRPAIMPRP
  shrunken log2 fold change: -0.152

## RRIRPRPPRLPRPRPRPWEKPRP
  shrunken log2 fold change: -0.106

## RRIRNRPPRLPRPRPRPDEQPRP
  shrunken log2 fold change: -0.0726

## RRIRGRPPRLPRPRPRPKQCPRP
  shrunken log2 fold change: 0.103

## RRIRTRPPRLPRPRPRPILHPRP
  shrunken log2 fold change: -0.324

## RRIRNRPPRLPRPRPRPEKMPRP
  shrunken log2 fold change: -0.00664

## RRIRTRPPRLPRPRPRPDCGPRP
  shrunken log2 fold change: 0.759

## RRIRTRPPRLPRPRPRPVCAPRP
  shrunken log2 fold change: 0.266

## RRIRNRPPRLPRPRPRPKAKPRP
  shrunken log2 fold change: 0.146

## RRIRKRPPRLPRPRPRPAYFPRP
  shrunken log2 fold change: -0.0128

## RRIRMRPPRLPRPRPRPWHWPRP
  shrunken log2 fold change: 0.0862

## RRIRERPPRLPRPRPRPEFAPRP
  shrunken log2 fold change: 0.0144

## RRIRVRPPRLPRPRPRPYWCPRP
  shrunken log2 fold change: -0.409

## RRIRWRPPRLPRPRPRPFNYPRP
  shrunken log2 fold change: -0.533

## RRIRPRPPRLPRPRPRPCCDPRP
  shrunken log2 fold change: 0.249

## RRIRWRPPRLPRPRPRPQKFPRP
  shrunken log2 fold change: -0.0956

## RRIRVRPPRLPRPRPRPTLPPRP
  shrunken log2 fold change: 0.335

## RRIRTRPPRLPRPRPRPWFYPRP
  shrunken log2 fold change: -0.54

## RRIRDRPPRLPRPRPRPIWAPRP
  shrunken log2 fold change: -0.0982

## RRIRTRPPRLPRPRPRPCNKPRP
  shrunken log2 fold change: -0.121

## RRIRIRPPRLPRPRPRPKNWPRP
  shrunken log2 fold change: -0.035

## RRIRYRPPRLPRPRPRPDTGPRP
  shrunken log2 fold change: -0.808

## RRIRRRPPRLPRPRPRPGVEPRP
  shrunken log2 fold change: 0.99

## RRIRVRPPRLPRPRPRPKRPPRP
  shrunken log2 fold change: 0.32

## RRIRHRPPRLPRPRPRPTCFPRP
  shrunken log2 fold change: 0.0654

## RRIRSRPPRLPRPRPRPDNCPRP
  shrunken log2 fold change: -0.103

## RRIRERPPRLPRPRPRPKVRPRP
  shrunken log2 fold change: -0.0607

## RRIRARPPRLPRPRPRPSCVPRP
  shrunken log2 fold change: 0.157

## RRIRQRPPRLPRPRPRPCHVPRP
  shrunken log2 fold change: -0.167

## RRIRHRPPRLPRPRPRPPVRPRP
  shrunken log2 fold change: 0.16

## RRIRGRPPRLPRPRPRPLCIPRP
  shrunken log2 fold change: 0.366

## RRIRKRPPRLPRPRPRPVDNPRP
  shrunken log2 fold change: -0.0705

## RRIRIRPPRLPRPRPRPAIIPRP
  shrunken log2 fold change: -1.09

## RRIRMRPPRLPRPRPRPMCEPRP
  shrunken log2 fold change: 0.273

## RRIRSRPPRLPRPRPRPRPTPRP
  shrunken log2 fold change: 0.391

## RRIRPRPPRLPRPRPRPCSIPRP
  shrunken log2 fold change: -0.232

## RRIRARPPRLPRPRPRPVFSPRP
  shrunken log2 fold change: -0.0817

## RRIRWRPPRLPRPRPRPCEDPRP
  shrunken log2 fold change: 0.115

## RRIRTRPPRLPRPRPRPGDYPRP
  shrunken log2 fold change: 0.142

## RRIRQRPPRLPRPRPRPMPGPRP
  shrunken log2 fold change: 0.0214

## RRIRVRPPRLPRPRPRPKGYPRP
  shrunken log2 fold change: -0.0404

## RRIRWRPPRLPRPRPRPAMDPRP
  shrunken log2 fold change: 0.109

## RRIRFRPPRLPRPRPRPFCMPRP
  shrunken log2 fold change: -0.62

## RRIRRRPPRLPRPRPRPNRKPRP
  shrunken log2 fold change: 0.105

## RRIRVRPPRLPRPRPRPCFSPRP
  shrunken log2 fold change: -0.356

## RRIRGRPPRLPRPRPRPNQKPRP
  shrunken log2 fold change: 0.0822

## RRIRTRPPRLPRPRPRPAGNPRP
  shrunken log2 fold change: 0.00723

## RRIRTRPPRLPRPRPRPEALPRP
  shrunken log2 fold change: 0.0496

## RRIRSRPPRLPRPRPRPEATPRP
  shrunken log2 fold change: 0.72

## RRIRNRPPRLPRPRPRPLPEPRP
  shrunken log2 fold change: -0.00875

## RRIRTRPPRLPRPRPRPGPSPRP
  shrunken log2 fold change: 0.438

## RRIRARPPRLPRPRPRPQSRPRP
  shrunken log2 fold change: -0.112

## RRIRMRPPRLPRPRPRPFDDPRP
  shrunken log2 fold change: 0.243

## RRIRKRPPRLPRPRPRPCDLPRP
  shrunken log2 fold change: 0.209

## RRIRLRPPRLPRPRPRPMMLPRP
  shrunken log2 fold change: -0.335

## RRIRRRPPRLPRPRPRPMEPPRP
  shrunken log2 fold change: 0.0257

## RRIRTRPPRLPRPRPRPLLQPRP
  shrunken log2 fold change: 0.173

## RRIRSRPPRLPRPRPRPNKVPRP
  shrunken log2 fold change: -0.283

## RRIRLRPPRLPRPRPRPCWCPRP
  shrunken log2 fold change: 0.0793

## RRIRWRPPRLPRPRPRPHSWPRP
  shrunken log2 fold change: 0.189

## RRIRVRPPRLPRPRPRPWTRPRP
  shrunken log2 fold change: -0.0486

## RRIRYRPPRLPRPRPRPHMGPRP
  shrunken log2 fold change: 3.73

## RRIRIRPPRLPRPRPRPEDIPRP
  shrunken log2 fold change: -0.407

## RRIRFRPPRLPRPRPRPMAKPRP
  shrunken log2 fold change: -0.0311

## RRIRERPPRLPRPRPRPFMCPRP
  shrunken log2 fold change: -0.158

## RRIRKRPPRLPRPRPRPLCIPRP
  shrunken log2 fold change: -0.0466
